Experimental data: patent publication US20260109776A1 (Amgen, published 2026)
Read-outs that look alike come from different tables or passages of the source.

B1: 30A12 (antibody, IgG4, V domains shown)
VH: EVQLLESGGGLVQPGGSLRLSCAASGFTFSRNAMSWVRQAPGKGLEWVSATGGSGISTYYADSVKGRFTISRDNSKNTLYLQMNSLRAEDTAVYYCARGYSNSWWYFDYWGQGTLVTVSS
VL: QSALTQPASVSGSPGQSITISCTGTSSDVGNYNLVSWYQQHPGKAPKLMIFEVNQRPSGVSNRFSGSKSGTTASLTISGLQAADEADYFCCSYTTSSTYVIFGGGTKLTVLG
notes: also called 4878-1
B2: 35F11 (antibody, IgG4, V domains shown)
VH: QVQLVESGGGVVQPGRSLRLSCAASGFTLSSYGMHWVRQAPGKGLEWVAVIWYDGSNKYYADSVKGRVTISRDNSKNTLYLQMNSLRAEDTAVYYCTRDGRNYVYFDNWGQGTLVTVSS
VL: QSALTQPRSVSGSPGQSVTISCTGTSSDVGGYIFVSWYQQHPGKAPKLMIYDVSKRPSGVPDRFSGSKSVNTASLTISGLQAEDETDYYCCSYAGNYTYVFGTGTKVTVLG
notes: also called 4868-1
B3: 39C2 (antibody, IgG4, V domains shown)
VH: QVQLVQSGTEVKKPGASVKVSCKASGYTFPGYYMHWVRQAPGQGLEWMGWINPDSGGTKYTQKFQGRVTLTRDASVSTAYIDLNRLRSDDTAVYYCARERCRTTNCYLDYWGQGSLVTVSS
VL: QSALTQPASVSGSPGQSITISCTGTSSDVGNYNLVSWYQQHPGKAPKLMIYEVNRRPSGVSNRFSGSKSGNTASLTISGLQAEDEAEYYCCSYAGRDTFVVFGGGTKLTVLG
notes: also called 4887-1
B4: 4G7 (antibody, IgG4, V domains shown)
VH: QVQLVQSGAEVKKPGASVKVSCKASGYTFAGYYMHWVRQAPGQGLEWMGWINPDSGGTNFAQQFQGRVTMTRDTSISTAYMEVSRLRSDDTAVFYCAREKITMTGIYFDYWGQGTLVTVSS
VL: DIQMTQSPSSLSASVGDILTITCRASQNITTYLNWYQQKPGKAPNLLISAASRLRSGVPSRFSGSGSGTDFTLTISSLQPVDFTTFYCQQTFTTPWTFGQGTKVEIKR
notes: also called 4869-1

Columns and labels:
[1] = target: T1, human CD40 on cells (human, UniProt P25942 21-277); assay: cell-based or functional assay
[2] = target: T1, human CD40 on cells; assay: flow cytometry, labelled CD40L on CD40-293T cells, antibody at 2.5 ug/ml
Method: (§1) Percent ligand binding inhibition was calculated as [(CD40L binding gMFI in the absence of anti-CD40)−(CD40L binding gMFI in the presence of anti-CD40)]/(CD40L binding gMFI in the absence of anti-CD40). gMFI: geometric mean fluorescent intensity. All anti-CD40 antibodies show minimal effects on the ability of CD40L to bind to the CD40 receptor (Table 7).
Target sequence in this assay (P25942 21-277 limits assumed): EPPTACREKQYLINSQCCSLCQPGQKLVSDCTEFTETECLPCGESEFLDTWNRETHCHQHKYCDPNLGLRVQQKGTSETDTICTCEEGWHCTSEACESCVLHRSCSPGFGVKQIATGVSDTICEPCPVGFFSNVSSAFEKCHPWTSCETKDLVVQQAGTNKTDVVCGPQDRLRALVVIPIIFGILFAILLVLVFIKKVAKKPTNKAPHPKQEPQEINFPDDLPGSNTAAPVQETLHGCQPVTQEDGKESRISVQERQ

[3] = target: T1, human CD40 on cells; assay: flow cytometry, labelled CD40L on CD40-293T cells, antibody at 20 ug/ml
Method: as §1
Target sequence in this assay (P25942 21-277 limits assumed): as above

[4] = target: T2, human TNFR1 (human, UniProt P19438 30-455); assay: flow cytometry, HEK293 transfectants
T2 construct: whole, on cells
T2 sequence (looked up): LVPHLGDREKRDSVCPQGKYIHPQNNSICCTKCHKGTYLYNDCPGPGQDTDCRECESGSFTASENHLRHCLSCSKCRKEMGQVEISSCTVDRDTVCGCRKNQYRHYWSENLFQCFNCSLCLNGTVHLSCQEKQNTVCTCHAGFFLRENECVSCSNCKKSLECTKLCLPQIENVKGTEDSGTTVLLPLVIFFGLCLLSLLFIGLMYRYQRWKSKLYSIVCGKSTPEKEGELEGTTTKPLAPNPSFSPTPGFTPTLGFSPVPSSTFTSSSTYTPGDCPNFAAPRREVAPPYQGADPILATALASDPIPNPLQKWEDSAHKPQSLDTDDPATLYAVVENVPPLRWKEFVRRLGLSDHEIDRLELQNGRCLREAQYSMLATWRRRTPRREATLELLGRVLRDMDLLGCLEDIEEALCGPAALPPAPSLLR
Method: (§2) The binding affinity of anti-human CD40 antibodies to human and cynomolgus monkey CD40 was measured by Octet assay (Table 3), quantifying association rate (Kon), disassociation rate (Kdis), and equilibrium binding constant (KD). Cross-reactivity of anti-CD40 antibodies to related TNF receptor superfamily (TNFRSF) members was evaluated by expressing human TNFR1, TNFR2, TNFR10, or TNFR14 on HEK293 cells by transient transfection of expression vectors encoding these genes. Binding of indicated anti-human CD40 antibody to these transfected cells was determined by flow cytometry. […] Cross-reactivity of anti-CD40 antibodies to cynomolgus monkey and mouse CD40 was evaluated by expressing cynomolgus monkey or mouse CD40 on HEK293 cells by transient transfection of expression vectors encoding these genes. Binding of indicated anti-human CD40 antibody to cells overexpressing cynomolgus monkey and mouse CD40 was determined by flow cytometry.

[5] = target: T3, human TNFR14 (human, UniProt Q92956 39-283); assay: flow cytometry, HEK293 transfectants
T3 construct: whole, on cells
T3 sequence (looked up): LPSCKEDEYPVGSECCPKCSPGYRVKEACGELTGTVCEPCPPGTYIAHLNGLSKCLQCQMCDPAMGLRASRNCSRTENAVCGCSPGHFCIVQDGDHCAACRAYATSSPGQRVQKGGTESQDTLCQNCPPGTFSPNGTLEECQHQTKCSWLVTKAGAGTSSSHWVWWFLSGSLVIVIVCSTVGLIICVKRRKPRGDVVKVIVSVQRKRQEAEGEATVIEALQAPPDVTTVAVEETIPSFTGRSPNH
Method: as §2

[6] = target: T4, human TNFR2 (human, UniProt P20333 23-461); assay: flow cytometry, HEK293 transfectants
T4 construct: whole, on cells
T4 sequence (looked up): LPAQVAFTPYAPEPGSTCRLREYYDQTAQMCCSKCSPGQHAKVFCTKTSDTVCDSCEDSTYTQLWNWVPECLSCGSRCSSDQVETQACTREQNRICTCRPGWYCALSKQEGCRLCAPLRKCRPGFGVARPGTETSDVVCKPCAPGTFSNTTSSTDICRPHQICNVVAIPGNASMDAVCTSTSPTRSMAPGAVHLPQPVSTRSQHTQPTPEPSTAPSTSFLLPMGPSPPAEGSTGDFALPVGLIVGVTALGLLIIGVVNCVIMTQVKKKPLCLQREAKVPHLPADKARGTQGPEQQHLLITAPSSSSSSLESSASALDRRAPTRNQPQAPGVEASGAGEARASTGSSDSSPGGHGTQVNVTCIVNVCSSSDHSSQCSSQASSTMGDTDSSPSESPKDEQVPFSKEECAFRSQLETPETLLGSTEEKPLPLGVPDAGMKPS
Method: as §2

[7] = target: T1, human CD40 on cells; assay: cell-based or functional assay; remark: listed apart in the source
Target sequence in this assay (P25942 21-277 limits assumed): as the sequence (P25942 21-277 limits assumed) above

[8] = target: T5, mouse CD40 on cells (mouse, UniProt P27512 20-289); assay: flow cytometry, HEK293 transfectants
T5 construct: whole, on cells; also called mouse CD40 on HEK293 cells; CD40 on mouse B cells
T5 sequence (looked up): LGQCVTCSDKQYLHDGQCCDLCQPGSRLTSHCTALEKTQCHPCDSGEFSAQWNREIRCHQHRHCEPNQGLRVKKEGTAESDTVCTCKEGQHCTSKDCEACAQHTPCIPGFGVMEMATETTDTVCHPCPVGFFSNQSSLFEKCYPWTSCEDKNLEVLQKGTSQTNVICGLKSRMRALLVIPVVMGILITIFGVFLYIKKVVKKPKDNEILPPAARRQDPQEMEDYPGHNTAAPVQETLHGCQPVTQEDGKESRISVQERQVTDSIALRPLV

[9] = target: human CD40 (human, UniProt P25942 21-193, limits assumed); assay: Octet
Method: as §2

[10] = target: T6, cynomolgus monkey CD40 (cynomolgus monkey, UniProt P25942 21-193 (human entry), limits assumed); assay: Octet
T6 chain: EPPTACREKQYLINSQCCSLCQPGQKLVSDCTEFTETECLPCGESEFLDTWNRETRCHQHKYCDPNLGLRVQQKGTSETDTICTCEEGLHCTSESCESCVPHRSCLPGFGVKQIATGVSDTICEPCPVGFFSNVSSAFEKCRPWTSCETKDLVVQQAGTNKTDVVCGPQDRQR
Method: as §2

[11] = target: T1, human CD40 on cells; assay: flow cytometry, labelled CD40L on CD40-293T cells, antibody at 5 ug/ml
Method: as §1
Target sequence in this assay (P25942 21-277 limits assumed): as the sequence (P25942 21-277 limits assumed) above

Chain of human CD40 (P25942 21-193 limits assumed): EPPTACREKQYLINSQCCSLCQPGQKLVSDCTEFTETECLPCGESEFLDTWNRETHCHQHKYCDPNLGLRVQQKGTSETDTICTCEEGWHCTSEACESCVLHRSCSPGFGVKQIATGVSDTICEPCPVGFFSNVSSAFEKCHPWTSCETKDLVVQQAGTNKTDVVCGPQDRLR

Row | Binder | human B cell proliferation, no crosslinking, EC50 [1] [nM] | human B cell proliferation, no crosslinking, Max Fold Change [1] [fold] | human B cell proliferation, with protein G crosslinking, EC50 [1] [nM] | human B cell proliferation, with protein G crosslinking, Max Fold Change [1] [fold] | Ligand Binding Inhibition (%) [2] [%] | Ligand Binding Inhibition (%) [3] [%] | binding result [4] | binding result [5] | binding result [6] | human B cell proliferation, no crosslinking, % Max Activity [7] [%] | human B cell proliferation, no crosslinking, EC50 [7] [nM] | human B cell proliferation, with protein G crosslinking, % Max Activity [7] [%] | human B cell proliferation, with protein G crosslinking, EC50 [7] [nM] | binding result [8] | Kd [9] [nM] | koff [9] [s⁻¹] | kon [9] [M⁻¹ s⁻¹] | Kd [10] [nM] | koff [10] [s⁻¹] | kon [10] [M⁻¹ s⁻¹] | other results
1 | B1 | > 16.7 | 1.45 | 0.362 | 23.8 | -16 | -3 | no binding | no binding | no binding | 8.6 | > 16.7 | 89.1 | 0.4 | no binding | 0.69 | 0.000368 | 533000 | 0.56 | 0.000306 | 544000 | Ligand Binding Inhibition (%) [11]: -15%
2 | B2 | > 16.7 | 1.33 | 0.371 | 24.2 | -15 | 8 | no binding | no binding | no binding | 4.4 | > 16.7 | 120 | 0.3 | no binding | 0.55 | 0.00031 | 556000 | 0.62 | 0.000314 | 506000 | Ligand Binding Inhibition (%) [11]: -5%
3 | B3 | > 16.7 | 1.24 | 0.529 | 23 | 7 | 2 | no binding | no binding | no binding | 6.1 | > 16.7 | 76.6 | 0.21 | no binding | 1.02 | 0.000614 | 599000 | 0.73 | 0.000376 | 518000 | Ligand Binding Inhibition (%) [11]: -6%
4 | B4 | > 16.7 | 1.19 | 0.43 | 18.1 | 21 | 3 | no binding | no binding | no binding | 6 | > 16.7 | 70.5 | 0.5 | no binding | 0.88 | 0.00108 | 1.23e+06 | 1.72 | 0.00193 | 1.13e+06 | Ligand Binding Inhibition (%) [11]: 24%
